Data: article PMC9482650, “Quantitative fragmentomics allow affinity mapping of interactomes” (Nature Communications, 2022)

Target: T1, APBA1_1, Q02410
T1 sequence (Q02410 651-752, limits assumed, looked up): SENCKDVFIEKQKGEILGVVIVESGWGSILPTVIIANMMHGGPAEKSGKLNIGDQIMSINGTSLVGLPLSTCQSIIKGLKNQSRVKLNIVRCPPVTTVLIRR
Experiment: holdup assay
Parameters: key: below the threshold = too weak to quantify, mostly under pKd 3.1 to 4
Conditions: plain residues with an end cap or a label only (N-terminal biotin on a linker: ado-ado)

Binder | pKd
TGLWKHETTV [ADGRA3, Q8IWK6] | below the threshold
QKAPTKEFYA [SDC2, P34741] | below the threshold

Target: T2, APBA1_2, Q02410
T2 sequence (Q02410 742-832, limits assumed, looked up): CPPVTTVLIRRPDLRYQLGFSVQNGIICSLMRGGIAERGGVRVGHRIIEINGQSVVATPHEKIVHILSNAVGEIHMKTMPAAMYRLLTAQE
Experiment: holdup assay
Parameters: key: below the threshold = too weak to quantify, mostly under pKd 3.1 to 4
Conditions: plain residues with an end cap or a label only (N-terminal biotin on a linker: ado-ado)

Binder | pKd
TGLWKHETTV [ADGRA3, Q8IWK6] | 3.59
QKAPTKEFYA [SDC2, P34741] | below the threshold

Target: ARHGEF12, Q9NZN5-2
Sequence (Q9NZN5 other isoform, or with tags, fused parts or gaps): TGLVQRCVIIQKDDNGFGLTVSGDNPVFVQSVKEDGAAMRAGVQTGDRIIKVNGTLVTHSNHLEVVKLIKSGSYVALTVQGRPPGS
Experiment: holdup assay
Parameters: key: below the threshold = too weak to quantify, mostly under pKd 3.1 to 4
Conditions: plain residues with an end cap or a label only (N-terminal biotin on a linker: ado-ado)

Binder | pKd
TGLWKHETTV [ADGRA3, Q8IWK6] | 4.06
QKAPTKEFYA [SDC2, P34741] | below the threshold

Target: DLG2_2, Q15700
Sequence (Q15700 189-283): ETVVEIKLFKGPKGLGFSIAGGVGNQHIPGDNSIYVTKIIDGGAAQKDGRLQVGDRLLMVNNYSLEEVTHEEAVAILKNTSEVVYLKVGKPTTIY
Experiment: holdup assay
Parameters: key: below the threshold = too weak to quantify, mostly under pKd 3.1 to 4
Conditions: plain residues with an end cap or a label only (N-terminal biotin on a linker: ado-ado)

Binder | pKd
TGLWKHETTV [ADGRA3, Q8IWK6] | 5.4
QKAPTKEFYA [SDC2, P34741] | below the threshold

Target: DLG5_1, Q8TDM6
Sequence (Q8TDM6 617-713): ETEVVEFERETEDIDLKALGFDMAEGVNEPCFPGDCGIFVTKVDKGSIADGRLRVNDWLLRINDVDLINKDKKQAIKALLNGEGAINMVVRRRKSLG
Experiment: holdup assay
Parameters: key: below the threshold = too weak to quantify, mostly under pKd 3.1 to 4
Conditions: plain residues with an end cap or a label only (N-terminal biotin on a linker: ado-ado)

Binder | pKd
TGLWKHETTV [ADGRA3, Q8IWK6] | below the threshold
QKAPTKEFYA [SDC2, P34741] | below the threshold

Target: FRMPD2_2, Q68DX3
Sequence (Q68DX3 944-1038): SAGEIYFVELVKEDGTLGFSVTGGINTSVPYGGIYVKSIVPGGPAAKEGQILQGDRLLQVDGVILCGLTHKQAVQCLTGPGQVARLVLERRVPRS
Experiment: holdup assay
Parameters: key: below the threshold = too weak to quantify, mostly under pKd 3.1 to 4
Conditions: plain residues with an end cap or a label only (N-terminal biotin on a linker: ado-ado)

Binder | pKd
TGLWKHETTV [ADGRA3, Q8IWK6] | 3.76
QKAPTKEFYA [SDC2, P34741] | 3.61

Target: GOPC, Q9HD26
Experiment: holdup assay
Parameters: key: below the threshold = too weak to quantify, mostly under pKd 3.1 to 4
Conditions: plain residues with an end cap or a label only (N-terminal biotin on a linker: ado-ado)

Binder | pKd
TGLWKHETTV [ADGRA3, Q8IWK6] | 3.92
QKAPTKEFYA [SDC2, P34741] | below the threshold

Target: T3, GRIP1_2, Q9Y3R0
T3 sequence (Q9Y3R0 145-248, limits assumed, looked up): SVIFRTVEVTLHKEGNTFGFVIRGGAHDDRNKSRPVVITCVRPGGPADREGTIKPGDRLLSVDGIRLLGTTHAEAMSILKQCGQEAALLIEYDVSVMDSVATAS
Experiment: holdup assay
Parameters: key: below the threshold = too weak to quantify, mostly under pKd 3.1 to 4
Conditions: plain residues with an end cap or a label only (N-terminal biotin on a linker: ado-ado)

Binder | pKd
TGLWKHETTV [ADGRA3, Q8IWK6] | below the threshold
QKAPTKEFYA [SDC2, P34741] | below the threshold

Target: T4, GRIP1_3, Q9Y3R0
T4 sequence (Q9Y3R0 247-346, limits assumed, looked up): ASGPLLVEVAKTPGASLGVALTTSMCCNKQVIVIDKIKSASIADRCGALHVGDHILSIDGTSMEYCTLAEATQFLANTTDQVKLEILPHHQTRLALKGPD
Experiment: holdup assay
Parameters: key: below the threshold = too weak to quantify, mostly under pKd 3.1 to 4
Conditions: plain residues with an end cap or a label only (N-terminal biotin on a linker: ado-ado)

Binder | pKd
TGLWKHETTV [ADGRA3, Q8IWK6] | below the threshold
QKAPTKEFYA [SDC2, P34741] | below the threshold

Target: T5, GRIP1_4, Q9Y3R0
T5 sequence (Q9Y3R0 467-571, limits assumed, looked up): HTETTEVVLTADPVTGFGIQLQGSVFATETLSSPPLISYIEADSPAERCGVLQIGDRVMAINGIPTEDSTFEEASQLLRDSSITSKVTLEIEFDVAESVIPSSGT
Experiment: holdup assay
Parameters: key: below the threshold = too weak to quantify, mostly under pKd 3.1 to 4
Conditions: plain residues with an end cap or a label only (N-terminal biotin on a linker: ado-ado)

Binder | pKd
TGLWKHETTV [ADGRA3, Q8IWK6] | below the threshold
QKAPTKEFYA [SDC2, P34741] | below the threshold

Target: GRIP2_3, Q9C0E4
Sequence (Q9C0E4 238-339): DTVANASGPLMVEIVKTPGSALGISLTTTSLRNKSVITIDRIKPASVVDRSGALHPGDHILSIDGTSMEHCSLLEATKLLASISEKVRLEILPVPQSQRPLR
Experiment: holdup assay
Parameters: key: below the threshold = too weak to quantify, mostly under pKd 3.1 to 4
Conditions: plain residues with an end cap or a label only (N-terminal biotin on a linker: ado-ado)

Binder | pKd
TGLWKHETTV [ADGRA3, Q8IWK6] | below the threshold
QKAPTKEFYA [SDC2, P34741] | below the threshold

Target: T6, HTRA4, P83105
T6 sequence (P83105 378-476, limits assumed, looked up): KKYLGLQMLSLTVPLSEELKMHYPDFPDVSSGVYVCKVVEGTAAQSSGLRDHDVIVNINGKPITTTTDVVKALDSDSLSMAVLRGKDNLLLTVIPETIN
Experiment: holdup assay
Parameters: key: below the threshold = too weak to quantify, mostly under pKd 3.1 to 4
Conditions: plain residues with an end cap or a label only (N-terminal biotin on a linker: ado-ado)

Binder | pKd
TGLWKHETTV [ADGRA3, Q8IWK6] | 4.15
QKAPTKEFYA [SDC2, P34741] | below the threshold

Target: Inadl_2, Q8NI35
Sequence (Q8NI35 238-335): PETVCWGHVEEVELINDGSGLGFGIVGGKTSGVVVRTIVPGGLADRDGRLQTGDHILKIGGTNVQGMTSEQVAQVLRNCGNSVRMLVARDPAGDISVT
Experiment: holdup assay
Parameters: key: below the threshold = too weak to quantify, mostly under pKd 3.1 to 4
Conditions: plain residues with an end cap or a label only (N-terminal biotin on a linker: ado-ado)

Binder | pKd
TGLWKHETTV [ADGRA3, Q8IWK6] | below the threshold
QKAPTKEFYA [SDC2, P34741] | below the threshold

Target: Inadl_8, Q8NI35
Sequence (Q8NI35 1425-1530): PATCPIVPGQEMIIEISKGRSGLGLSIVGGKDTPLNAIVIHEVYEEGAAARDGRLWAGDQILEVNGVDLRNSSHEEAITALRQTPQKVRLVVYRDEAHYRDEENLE
Experiment: holdup assay
Parameters: key: below the threshold = too weak to quantify, mostly under pKd 3.1 to 4
Conditions: plain residues with an end cap or a label only (N-terminal biotin on a linker: ado-ado)

Binder | pKd
TGLWKHETTV [ADGRA3, Q8IWK6] | below the threshold
QKAPTKEFYA [SDC2, P34741] | below the threshold

Target: Inadl_9, Q8NI35
Sequence (Q8NI35 1530-1615): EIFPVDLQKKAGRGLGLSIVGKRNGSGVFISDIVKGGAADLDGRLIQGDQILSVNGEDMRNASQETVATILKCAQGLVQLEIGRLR
Experiment: holdup assay
Parameters: key: below the threshold = too weak to quantify, mostly under pKd 3.1 to 4
Conditions: plain residues with an end cap or a label only (N-terminal biotin on a linker: ado-ado)

Binder | pKd
TGLWKHETTV [ADGRA3, Q8IWK6] | 3.74
QKAPTKEFYA [SDC2, P34741] | below the threshold

Target: T7, LIN7A, O14910
T7 sequence (O14910 103-200, limits assumed, looked up): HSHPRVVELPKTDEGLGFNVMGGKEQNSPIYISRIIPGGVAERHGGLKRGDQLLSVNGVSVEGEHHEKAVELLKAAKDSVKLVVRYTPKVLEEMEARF
Experiment: holdup assay
Parameters: key: below the threshold = too weak to quantify, mostly under pKd 3.1 to 4
Conditions: plain residues with an end cap or a label only (N-terminal biotin on a linker: ado-ado)

Binder | pKd
TGLWKHETTV [ADGRA3, Q8IWK6] | 4.19
QKAPTKEFYA [SDC2, P34741] | below the threshold

Target: T8, LRRC7, Q96NW7
T8 sequence (Q96NW7 1440-1537, limits assumed, looked up): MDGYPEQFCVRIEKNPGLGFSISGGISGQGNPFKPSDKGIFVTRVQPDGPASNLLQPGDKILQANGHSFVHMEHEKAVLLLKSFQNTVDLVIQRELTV
Experiment: holdup assay
Parameters: key: below the threshold = too weak to quantify, mostly under pKd 3.1 to 4
Conditions: plain residues with an end cap or a label only (N-terminal biotin on a linker: ado-ado)

Binder | pKd
TGLWKHETTV [ADGRA3, Q8IWK6] | 3.82
QKAPTKEFYA [SDC2, P34741] | below the threshold

Target: MAGI2_2, Q86UL8
Sequence (Q86UL8 410-522): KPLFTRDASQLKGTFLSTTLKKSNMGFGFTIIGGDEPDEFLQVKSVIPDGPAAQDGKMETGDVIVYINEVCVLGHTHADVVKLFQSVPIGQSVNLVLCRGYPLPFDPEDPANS
Experiment: holdup assay
Parameters: key: below the threshold = too weak to quantify, mostly under pKd 3.1 to 4
Conditions: plain residues with an end cap or a label only (N-terminal biotin on a linker: ado-ado)

Binder | pKd
TGLWKHETTV [ADGRA3, Q8IWK6] | 5.22
QKAPTKEFYA [SDC2, P34741] | below the threshold

Target: NHERF2_2, Q15599
Sequence (Q15599 142-238): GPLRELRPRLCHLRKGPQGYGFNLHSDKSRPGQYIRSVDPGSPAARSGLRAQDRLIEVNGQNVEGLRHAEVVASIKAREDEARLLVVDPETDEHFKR
Experiment: holdup assay
Parameters: key: below the threshold = too weak to quantify, mostly under pKd 3.1 to 4
Conditions: plain residues with an end cap or a label only (N-terminal biotin on a linker: ado-ado)

Binder | pKd
TGLWKHETTV [ADGRA3, Q8IWK6] | below the threshold
QKAPTKEFYA [SDC2, P34741] | below the threshold

Target: NOS1, P29475
Sequence (P29475 9-101): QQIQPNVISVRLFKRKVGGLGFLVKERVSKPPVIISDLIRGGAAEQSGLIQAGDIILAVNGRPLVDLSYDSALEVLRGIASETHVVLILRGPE
Experiment: holdup assay
Parameters: key: below the threshold = too weak to quantify, mostly under pKd 3.1 to 4
Conditions: plain residues with an end cap or a label only (N-terminal biotin on a linker: ado-ado)

Binder | pKd
TGLWKHETTV [ADGRA3, Q8IWK6] | below the threshold
QKAPTKEFYA [SDC2, P34741] | 3.83

Target: T9, PARD3B_1, Q8TEW8
T9 sequence (Q8TEW8 196-299, limits assumed, looked up): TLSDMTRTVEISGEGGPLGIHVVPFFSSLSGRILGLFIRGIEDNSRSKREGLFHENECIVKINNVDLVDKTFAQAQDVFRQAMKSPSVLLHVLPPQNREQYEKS
Experiment: holdup assay
Parameters: key: below the threshold = too weak to quantify, mostly under pKd 3.1 to 4
Conditions: plain residues with an end cap or a label only (N-terminal biotin on a linker: ado-ado)

Binder | pKd
TGLWKHETTV [ADGRA3, Q8IWK6] | below the threshold
QKAPTKEFYA [SDC2, P34741] | 4.39

Target: PARD3_3, Q8TEW0
Sequence (Q8TEW0 582-685): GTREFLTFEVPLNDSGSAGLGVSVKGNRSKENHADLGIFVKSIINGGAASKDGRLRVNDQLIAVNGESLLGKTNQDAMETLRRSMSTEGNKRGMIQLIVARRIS
Experiment: holdup assay
Parameters: key: below the threshold = too weak to quantify, mostly under pKd 3.1 to 4
Conditions: plain residues with an end cap or a label only (N-terminal biotin on a linker: ado-ado)

Binder | pKd
TGLWKHETTV [ADGRA3, Q8IWK6] | 3.54
QKAPTKEFYA [SDC2, P34741] | below the threshold

Target: T10, PCLO, Q9Y6V0
T10 sequence (Q9Y6V0 4491-4600, limits assumed, looked up): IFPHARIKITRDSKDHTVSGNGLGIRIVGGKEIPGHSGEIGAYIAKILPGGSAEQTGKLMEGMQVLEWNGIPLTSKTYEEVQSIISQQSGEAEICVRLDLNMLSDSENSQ
Experiment: holdup assay
Parameters: key: below the threshold = too weak to quantify, mostly under pKd 3.1 to 4
Conditions: plain residues with an end cap or a label only (N-terminal biotin on a linker: ado-ado)

Binder | pKd
TGLWKHETTV [ADGRA3, Q8IWK6] | below the threshold
QKAPTKEFYA [SDC2, P34741] | below the threshold

Target: PDZRN4_1, Q6ZMN7
Sequence (Q6ZMN7 213-318): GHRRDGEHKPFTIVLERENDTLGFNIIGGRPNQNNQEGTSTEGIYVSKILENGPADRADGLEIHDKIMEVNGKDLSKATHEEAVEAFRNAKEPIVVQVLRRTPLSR
Experiment: holdup assay
Parameters: key: below the threshold = too weak to quantify, mostly under pKd 3.1 to 4
Conditions: plain residues with an end cap or a label only (N-terminal biotin on a linker: ado-ado)

Binder | pKd
TGLWKHETTV [ADGRA3, Q8IWK6] | 4.56
QKAPTKEFYA [SDC2, P34741] | below the threshold

Target: PICK1, Q9NRD5
Sequence (Q9NRD5 17-115): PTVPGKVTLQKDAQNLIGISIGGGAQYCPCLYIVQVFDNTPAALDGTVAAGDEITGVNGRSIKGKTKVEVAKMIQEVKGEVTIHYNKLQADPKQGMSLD
Experiment: holdup assay
Parameters: key: below the threshold = too weak to quantify, mostly under pKd 3.1 to 4
Conditions: plain residues with an end cap or a label only (N-terminal biotin on a linker: ado-ado)

Binder | pKd
TGLWKHETTV [ADGRA3, Q8IWK6] | 4.16
QKAPTKEFYA [SDC2, P34741] | below the threshold

Target: T11, TIAM2, Q8IVF5
T11 sequence (Q8IVF5 885-986, limits assumed, looked up): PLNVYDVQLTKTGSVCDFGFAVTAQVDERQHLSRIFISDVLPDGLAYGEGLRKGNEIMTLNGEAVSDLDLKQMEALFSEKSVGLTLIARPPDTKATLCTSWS
Experiment: holdup assay
Parameters: key: below the threshold = too weak to quantify, mostly under pKd 3.1 to 4
Conditions: plain residues with an end cap or a label only (N-terminal biotin on a linker: ado-ado)

Binder | pKd
TGLWKHETTV [ADGRA3, Q8IWK6] | below the threshold
QKAPTKEFYA [SDC2, P34741] | 4.34
